# From the nanobody polyreactivity screen of Harvey et al. (2022)
# Test: yeast display, Sf9 membrane polyspecificity reagent, FACS + sequencing; frameworks hold sequencing errors
# Procedure, shortened: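 Galactose induction of a Saccharomyces cerevisiae BJ5465 synthetic nanobody display library ran 36–48 hours. The cells were then stained for 1 hour at 4 °C with 10% biotinylated, detergent-solubilized Sf9 membrane reagent, pulled down on streptavidin microbeads and FACS-sorted into low and high (top ~1%) gates on expression and reagent-binding fluorescence. Labels for polyreactivity follow the gate of origin.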
row,Sequence,polyreactivity (PSR sort gate)
1,QVQLAESGGGLVQAGGSLRLSCAASGSIFRLNAMGWYRQAPGKERELVAAINSGTNTYYADSVKGRFTISRDNAKNTVYLQMNSLKPEDTAVYYCAADWNDWHYDYWGQGTQVTVSS,low polyreactivity
2,QVQLVESGGGLVQAGGSLRLSCAASGSTFAYNDMGWYRQAPGKERELVADIRSGGNTNYADSVKGRFTISRDNAKNTVYLQMNSLKPEDTAVYYCASDGYRIDVYHPDYRYDYWGQGTQVTVSS,low polyreactivity
3,QVHLVDSGGGLVQAGGSLRLSCAASGFNFTYYGMGSYRQAPGKERELVAAISESCGSTYYADSVKGRFTISRDNAKNTVYLQMTSLKPEDTAVYYCAADVTKRASRDYYWGQGTQVTVSS,high polyreactivity
4,QVQLVESGGGLDQAGGSLRLSCAASGFIFRYYTMGWYRQAPGKERELFATITSGGSTYYADSVKGRFTISRDNAKNTVYLQMNSLKPEDTAVYYCAKYHSLRRQYSKFRPTFDYWGQGTQVTVSS,high polyreactivity
5,QVQLVETGGGLVQAGGSLRLSCAASGSTFYPTYAMGWYRQAPGKERELVATITGSGGSTYYADSVKGRFTISRDNAKNTVYLKMNSLKPEDTAVYYCAADRWYSRYTRYGYWGQGTQVTVSS,low polyreactivity
6,QVQLVESGRGLVQAGGSLRLSCAASGGSIPYYAMGWYRQAPGKERELVAAINYSGGSTYYADSVKGRFTISRDNAKNSVYLQMNSLKPEDTAVDYCAARHRYHRGYGYWGQGTQVTLSS,high polyreactivity
7,QVQLVESGGGLVQAGGSLRLRCAASANTFGFYAMGWYRQAPGKERELVAGITSGDSTYYADSVKGRFTISRDNAKNTVYLQMNSLKPEDSAVYYCATAPYVSSRRYGPYEYWGQGTQVTVSS,low polyreactivity
8,QVQLVESGGGLVQAGGSLRLSSAASGSTIGGYAMGWYRQAPGKERELVAAITRSGGRTYYADSVKGRFTISRDNSKNTVYLQMNSLKPEDTAVYYCATLVTIGRYDSWGQGTQVTVSS,high polyreactivity
9,QVQLVESAGGLVQARGSLRLSCAASGRIFVPYAMGWYRQAPGKERELVAVISRGGSTYYADSVKGRFTISRDNAKNTVYLQMNSLKPEDTAVYYCAVASKLALQPWYDYWGQGTQVTVSS,high polyreactivity
10,QVQLVESGGGLVQAGGSLSLSCADSAGTFKTNAKGWYRQAPGKERELVAAITGSGTSTYYADSVKGRFTSSRDNAKNTVYFQMNSLKPEDTAVYYCAADKLYQPGIGDDYWGQGTQVTLSS,low polyreactivity
11,QVQLVESGGGLVQAGGSLRLSCAASGSTFYPYAMGWYRPAPGKERELVASITLRGSSTYYADSVKGRFTISRDNAKNTVYLQMNSLKPEDTAVYYCAKEGYLYLWRYDYWGQGTQVTVSS,high polyreactivity
12,QVQLVESGGGLVQAGGTLRLSSAASGSIFYRNAMGWYRQAPGKERELVDSITSGGLTNYADSVKGRFTISRDNAKNTVYLHMFSLKPEETAVYYCARGRASYTKSGPTPYTGYGYWGQGTQVTVSS,low polyreactivity
13,QVQLVESGGGLVQAGGRLRLSCAASGITFYRYAMGWYIQAPGKERELVASISSRGSSSYYADSVKGRFTISRDNAKNTVYLQRNSLKPEDTAVYYCAKSRGSRGFVASTYNYWGQGTQVTVSS,high polyreactivity
14,QVQLVESGGGLVHAGGSLRLSCAASGITFYEYTMGWYRQAPGKERELVADIDFSGDSTYYSDSVKGRFTISRDYAKNTVYLQMNSLKPEDTAVYYCAVEIIYWWYIYEYWGQGSQVTVSS,high polyreactivity
15,QVQLVESGGGLVQAGGSLRLSCAASGSPFSVYAMGWYRQAPGKERELVAAISWTVGSTYYADSVKGRFTISRDTAKNTVYLQMNSLIPEDTAVYYCAADIYWHYDYWGQGTQVTVSS,high polyreactivity
16,QVQLVESGGGLVQAGGSLRLSCAASGRTFFQYAMGGYRQAPGKERELVAAIRWSDSTYYADSVKGRFTISRDKAKNTVYLPMNSLKPEDTAVYYCNASVFQSEYDYWGQGTQVTVSS,low polyreactivity
17,QVQLVESGGVLVQAGGSLRLSCAASGSIFNYYAMGWYRQAPGKERELVAGITTSGGSTYYADSVKARFTISRDNEKNSVYLQMNSLTPEDTAVYYCAAYDYISSTYFLDDYWGQGTQVTVSS,low polyreactivity
18,QVQLVESGGGLVQAGGSLRLSCAASGSTFARNAMGWYRQAPGKERELVAAITYSGGRTYYADSVKGRFTISRDNAKNTVYLQMNSLKPEDTAVYYCAADIVSSTDYPFDYWGQGTQVTVSS,low polyreactivity
19,QVQLVESGGGLVQAGGSLRLSCAASGSTFYLYTMGWYRQAPGKERELVAAISRSGGSTRYADSVKGRFTISRDNAKNTVYLQMNSLKPEDTAVYYCAARSTVYPRPHERDYWGQGTQVTVSS,high polyreactivity
20,QVQLVESGGGLVQAGGSLRLSCAASGSIFYWYAMGWYRQAPGKERELVAAITWSGGSTYYADSVKGRFTISRDNAKNTVYLQMNSLKPEDTAVYYCNKVPYYGAYSSYDYWGQGTQVTVSS,high polyreactivity
21,QVQLVESGGGLVQAGGSLRLSCAASGSIFTDNAMGWYRQAPGKERALVAAISWIGDSTDYADSVKGRFTISRDNAKNTVYLQMNSLKPDDTAVYFCAADAKVVSPLYRANDIGMYYWGQGTQVTVSS,low polyreactivity
22,QVQLVESGGGLVQAGGSLRLSCAASGRTFRANAMGWYRQAPGKERELVAAIRTGTRTYYADSVKGRFTISRDNAKNTVYLQMNSLKPEDTAVYYCNRRHYYPYDNYDAMYYWGQGTQVTVSS,high polyreactivity

row,Sequence,polyreactivity (PSR sort gate)
1,QVQLVESGGGLVQAGGSLRLSCAASGRTFRVYARGWYRQAPGKERELVATITSSGGSTYYADSVKGRFTISRDNAKNTVYLQMNSLKPEDTAVYYCNVSVYYNYDSSYYYWGQGTQVTVSS,low polyreactivity
2,QVQLVESGGGLVQAGGSLRLRCAATGFIFSSYAMGWYRQAPGKERELVAAINRSGSTYYADSVKGRFTISRDNAKNTVYLQMNSLKPEDTADYYCNARRYYYRYRNYDYWGQGTQVTVSS,high polyreactivity
3,QVQRVESGGGLVQAGGSLRLSCAHSGRTFPRYVMGRYRQAPAKERELVAAITSSGGSTYYADSVKGRFTISRDNAKNTVYLQMNSLKPEDTAVYYCAAYARPYSGPYAYRLDYWGQGTQVTVSS,high polyreactivity
4,QVQLVESGGGLVQAGGSLRLSCAASGSTFWSYAIGWYRQAPGKERELVATISAGGGSTSYADSVKGRFTISRDNAKNTVYLQMNSLKPEDTAVYYCATGYSDSSRYGGYYKFDYWGQGTQVTVSS,low polyreactivity
5,QVQLVESGGRLVQAGGSLRLSSAASGRIFASNAMGWYRQAPGKERELVAAIDQGGGSTYYADSVKGRFTISRDNAKNTVYLQMNSLKPEDTAVYYCAADYITAYPRLYNYWGQGTQVTVSS,low polyreactivity
6,QVQLVESGGGLVQAGGSLRLSCAASGITFADNARGWYRQAPGKERELVASISNSSGSTYYADSVKGRFTISRDNAKNTVYLQMNSLKPEDTAVYYCATDPYVRRSPSWYDYWGQGTQVTVSS,low polyreactivity
7,QFQLVESGGCLVQAGGSLRLSCAASGRTFGWYAMGWYRQAPGKERELVAAISTRGTRTYYADSVKGRFTISRDNAKITDYLQMYSLKPEDTAVYYCNAKRRAVTTAHGIPEEDYWGQGTKVTVSS,high polyreactivity
8,QVQLVESGGGLVQAGGSLRLSCAASGLTSDYNAMGWYRQAPGKERELVAAISSGGRTYYADSVKGRFTISRDNAKNTVYLQMNSLKPEDTAVYYCAAEFRVLRGYQYDYWGQGTQVTVSS,high polyreactivity
9,QVQLEESPGGLVQAGGSLRLSCAASGRIIGRYAMGWTRQAPGKERELVAAISYRGGSTYYADSVKGRFTISRDNAKNTVYLQMNSLKPEDTAVYYCAKDSRSWPFKYDYWGQGTQVTVSS,high polyreactivity
10,QVQLEESGGGLVQAGGSLRLTCAGSGSIFDGNSMGWDRQAPGKEMELVASISWSGGTTYYADSVKGRFTISRDNATNTVYLQMNSLIPEDTAVYYCNKAGGYRRYSFWSGDYWAGLDFLGQGTQVTVSS,low polyreactivity
11,QVQLVESGGGLVQAGGSLRLSCAASGSTFVFYAMGWYRQAPGKERELVADITSGGRTSYADSVKGRFTISRDNAKNTVYLQLNSLKPEDTAVYYSAALTRWYAWYDYWGQGTQVTVSS,high polyreactivity
12,QVQLVESGGGLVQAGGSLRLSCASSGFIFFYYTKGWYRQAPGKERELVAAISTGGSTYYADSVKGRFTISRDNAKNTVYLQMNSLKPEDTAVYYCAALYWYEYTYLEYDYWGQGTQVTVSS,high polyreactivity
13,QVKLVVSGGGLVQAGGSLRLTCAASGRTFRRNAMGWYRQAPGKERELVAAISTSGGRTYYADSVKGRFTISRDNAKNTVYLQMNSLKAEDTAVYYCAADIPQTEGYWGQGTQVTVSS,low polyreactivity
14,QVKLVESGGGLVQAGGSLRLSCAASGFILGYYAMGWYRQAPGKERELVASISRRGGSTYYADSVKGRFTISRDNAKNTVYLQMNSLKPEDTAVYYCAASGYGRYPPYEYWGQGTQVTVSS,high polyreactivity
15,QVQLVESGGGLVQAGGSLRISCAASGSTFRRYAMGWYRQAPGKEREFVAVITSSGVITYYADSVKGRFTISRDNAKNTVYLQMNSLKPEDTAVYYCATDARSMDYWGQGTQVTVSS,low polyreactivity
16,QVQLVESGGGLVQAGGSLRLSCAASGIIFPINAMGWYRPAPGKERELVAGIDESGGGTYYADSVKGRFTISRDNAKNTLYLQMNSLKPEDTAVYYCAAVTLAPRAYDYWGQGTEVTVSS,low polyreactivity
17,QVQLVDTGGGLVQAGGSLRLSCAASGSIFHNNSRGWYRQATGKERELVAAIRRSGGSTSYADSVKGRFTISLDNAKNTVYLQMNSLKPEDTAVYYCNKRFVRFSPEYGYWGQGNQVTVSS,low polyreactivity
18,QVQLVESGGGLVQAGGSLRLSCAASGSIFFKYTMGWYRQAPGKERELVAAITYTGGRTYYADSVKGRFTISRDNAKNTVYLQMNSLKPEDTAVYFCNKVTPRQGNRLAGVSGYDYWGQGTQVTVSS,high polyreactivity
19,QVQLVESGGGLVQAGGSLRLSCAASGFTFRGYAMGWYRQAPGKERELVAAITWSGGSTYYADSVKGRFTISRDNAKYTVYLQMNSLKPEDTAVYYCNAYYASGYRQYDYWGQGTQVTVSS,high polyreactivity
20,QVQLVESGGGLVQAGGSLRLSCAASGGIPLYYVMGWYRQAPGKERELVADISGDDSTNYADSVKGRFTISRDNAKNTVYLQMNSLKPEDTAVYYCAADGWLWSFTGDGWWFDYWGQGTQVTVSS,low polyreactivity
21,QVQLVESGGGLVQAGGSLRLSCAASGSTFETNAMGWYRPAPGKERELVAAIRWSTGNTYYADSVKGRFTISRDNAKNTVYLQMNSLKPEDTEVYYCAAYKGKHYIEGYWGQGTQVTVSS,low polyreactivity
